Results from patent US5654179A, “Nucleic acid preparation methods” (HRI Research, Inc., priority 1994, dated 1997).

Experiments:
Taq polymerase [1] = assay: Mode III whole blood, globin PCR (KM-29/HRI-12) with inhibitor treatment; format: biochemical; settings: 250 μg bovine transferrin, 10 mM sodium bicarbonate; 25,000 to 0 cells; no product without treatment
Procedure: Generally, PCR was carried out using 175-200 μM dNTPS (deoxyribonucleoside 5'-triphosphates) and 0.5 to 1.0 μM primers. Five units/100 μl of Taq polymerase were used. PCR reactions were overlaid with 30-100 μl light mineral oil. A typical PCR cycle for HIV amplification using a Perkin-Elmer Cetus DNA Thermal Cycler (Part No. N8010150) was: denaturation at 95° C. for 30 seconds; annealing at 55° C. for 30 seconds; and extension at 72° C. for 1 minute. PCR cycles were normally carried out in this manner for 35 cycles followed by 7 minutes at 72° C.
In one case, amplification of globin sequences was performed using primer pair KM-29 (SEQ ID NO:10)and HRI-12 (SEQ ID NO:11) to give a 174 bp product within the human beta globin gene.
Whole blood samples were lysed with protease K (500 μg/ml, 55° C. for 1 hour). The enzyme was inactivated by heating (95°-100°C., 10 minutes). Aliquots corresponding to 25,000, 10,000, 5,000, 2,000, 1000, 500 and 0 cells were made. Bovine transferrin (250 μg) was added to each sample as well as the cofactor sodium bicarbonate (adjusted to 10 mM) and the reaction was incubated at room temperature for 30 minutes. Concentrated PCR reagents were then added to each sample to a final volume of 100 μl. […]

Taq polymerase [2] = assay: HIV PCR after inhibitor treatment of whole blood lysate; format: biochemical; settings: with cofactor sodium bicarbonate
Procedure: The enzyme was inactivated by heating (95°-100° C., 10 minutes).

B1: Bovine Transferrin: bovine transferrin (protein, UniProt Q29443 20-704, looked up)
Serotransferrin: DPERTVRWCTISTHEANKCASFRENVLRILESGPFVSCVKKTSHMDCIKAISNNEADAVTLDGGLVYEAGLKPNNLKPVVAEFHGTKDNPQTHYYAVAVVKKDTDFKLNELRGKKSCHTGLGRSAGWNIPMAKLYKELPDPQESIQRAAANFFSASCVPCADQSSFPKLCQLCAGKGTDKCACSNHEPYFGYSGAFKCLMEGAGDVAFVKHSTVFDNLPNPEDRKNYELLCGDNTRKSVDDYQECYLAMVPSHAVVARTVGGKEDVIWELLNHAQEHFGKDKPDNFQLFQSPHGKDLLFKDSADGFLKIPSKMDFELYLGYEYVTALQNLRESKPPDSSKDECMVKWCAIGHQERTKCDRWSGFSGGAIECETAENTEECIAKIMKGEADAMSLDGGYLYIAGKCGLVPVLAENYKTEGESCKNTPEKGYLAVAVVKTSDANINWNNLKDKKSCHTAVDRTAGWNIPMGLLYSKINNCKFDEFFSAGCAPGSPRNSSLCALCIGSEKGTGKECVPNSNERYYGYTGAFRCLVEKGDVAFVKDQTVIQNTDGNNNEAWAKNLKKENFEVLCKDGTRKPVTDAENCHLARGPNHAVVSRKDKATCVEKILNKQQDDFGKSVTDCTSNFCLFQSNSKDLLFRDDTKCLASIAKKTYDSYLGDDYVRAMTNLRQCSTSKLLEACTFHKP
globin PCR product after inhibitor treatment (Taq polymerase [1]): decreasing product band corresponding to the decreasing amount of cells

B2: rat transferrin: transferrin from rat (protein, UniProt P12346 20-698, looked up)
Serotransferrin: VPDKTVKWCAVSEHENTKCISFRDHMKTVLPADGPRLACVKKTSYQDCIKAISGGEADAITLDGGWVYDAGLTPNNLKPVAAEFYGSLEHPQTHYLAVAVVKKGTDFQLNQLQGKKSCHTGLGRSAGWIIPIGLLFCNLPEPRKPLEKAVASFFSGSCVPCADPVAFPQLCQLCPGCGCSPTQPFFGYVGAFKCLRDGGGDVAFVKHTTIFEVLPQKADRDQYELLCLDNTRKPVDQYEDCYLARIPSHAVVARNGDGKEDLIWEILKVAQEHFGKGKSKDFQLFGSPLGKDLLFKDSAFGLLRVPPRMDYRLYLGHSYVTAIRNQREGVCPEGSIDSAPVKWCALSHQERAKCDEWSVSSNGQIECESAESTEDCIDKIVNGEADAMSLDGGHAYIAGQCGLVPVMAENYDISSCTNPQSDVFPKGYYAVAVVKASDSSINWNNLKGKKSCHTGVDRTAGWNIPMGLLFSRINHCKFDEFFSQGCAPGYKKNSTLCDLCIGPAKCAPNNREGYNGYTGAFQCLVEKGDVAFVKHQTVLENTNGKNTAAWAKDLKQEDFQLLCPDGTKKPVTEFATCHLAQAPNHVVVSRKEKAARVSTVLTAQKDLFWKGDKDCTGNFCLFRSSTKDLLFRDDTKCLTKLPEGTTYEEYLGAEYLQAVGNIRKCSTSRLLEACTFHKS
activity as interfering reagent (Taq polymerase [2]): does not work as an interfering reagent
